Experimental data as given in paper PMC9180478.

How the values were obtained:
[1] = molecular target: Myc-PCNA (UniProt P12004); assay: FLAG-immunoprecipitation, immunoblot; settings: transient co-expression with Myc-PCNA; parent: 1.00
[2] = molecular target: Myc-PCNA (C81R) (UniProt P12004); assay: FLAG-immunoprecipitation, immunoblot; settings: transient co-expression with Myc-PCNA (C81R); parent: 1.00

Substance | ratio to parent [1] | ratio to parent [2]
FLAG-ATAD5 (812–1844) (from UniProt Q96QE3) 815SSQD818 to GGAA | 0.91 | 
FLAG-ATAD5 (812–1844) (from UniProt Q96QE3) 815SSQD818 to GGAA; S824A; Q825A; D826A | 1.35 | 0.91
